According to the nanobody polyreactivity screen of Harvey et al. (2022):

Test: yeast display, Sf9 membrane polyspecificity reagent, FACS + sequencing; frameworks hold sequencing errors
Method in brief: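 A synthetic nanobody library was expressed on Saccharomyces cerevisiae BJ5465 by galactose induction for 36–48 hours. The library was stained for 1 hour at 4 °C with 10% biotinylated, detergent-solubilized Sf9 membrane reagent and enriched with streptavidin microbeads before FACS. Low and high (top ~1%) gates were set on anti-HA fluorescence for expression and streptavidin fluorescence for reagent binding, and each polyreactivity label reflects the gate of origin.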

QVQHVESGGGLVQAGGSLRLSCAASGIIFYDYTMGWYRQAPGKERELVAVITNGDTTYYADSVKGRFTISRDNAKNTVYLQMNSLKPEDTAVYYCAADKRPPYILDYWGQGTQVTVSS
polyreactivity (PSR sort gate): high polyreactivity

QVQHVESGGGLVQAGGSLRLSCAASGITFYRYAMGWYIQAPGKERELVAAINASGGSTYYADSVKGRFTISRDKAKNTVYLQMNSLKPEDTAVYYCAADRVSWVKHYYWGQGTKVTVSS
polyreactivity (PSR sort gate): high polyreactivity

QVQHVESGGGLVQAGGSLRLSCAASGITFYVNDMGWSRQAPGKEREFVAAISYRGGSPYYADSVKGRFTFSRDNAKNTVYLKMNSLKPEDTAVYYCAADYNYWSPHRYDYWGQGTQVTVSS
polyreactivity (PSR sort gate): low polyreactivity

QVQHVESGGGLVQAGGSLRLSCAASGLTFELYAMGWYRQAPGKERELVAAITWSGGRTYDADSVKGRFTISRDNAKNTVYLQMNSLKPEDTAVYYCAADVYPGYVGSQEYDYWGQGTQVTVSS
polyreactivity (PSR sort gate): low polyreactivity

QVQHVESGGGLVQAGGSLRLSCAASGLTFRVYAMGWYRQEPGKERELVAAITGGGGSTYADSVKGRFTISRENAKNTVYLQMNSLNPDDTAVYYCNIKGYYYKFDYWGQGTQVTVSS
polyreactivity (PSR sort gate): low polyreactivity

QVQHVESGGGLVQAGGSLRLSCAASGQIYNQNAMGWYRQAPGKERELVAAISYRGGSTYYADSVKGRFTISRDNAKNTVYLQMNSLKPEDTADYYCAAARSGSGGKQFDHGFNYWGQGTQVTVSS
polyreactivity (PSR sort gate): high polyreactivity

QVQHVESGGGLVQAGGSLRLSCAASGRIFGPYAMGWYRQAPGKEREFVAVITYSSGSTYYADSVKWRFTISRDNAKNTVYLQMNSLKPEDTAVYYCAARLIRSYYYGRYDYWGQGTQVTVSS
polyreactivity (PSR sort gate): high polyreactivity

QVQHVESGGGLVQAGGSLRLSCAASGRIFHYNAMGWYRQAPGKERELVAAITWIGGSTYADSVKGRFTISRDNAKNTVYLQMNSLKPEDTAVYYCNARYIYRFDYWGQGTQVTVSS
polyreactivity (PSR sort gate): low polyreactivity

QVQHVESGGGLVQAGGSLRLSCAASGRIFNLYAMGWYRQAPGKERELVAAIRGRGTSTYYADSVKGRFTISSDNAKNTVFLQINSLKPEDTAVYYCAREGGYGPTLQDTSRYEYCGQGTQVTVSS
polyreactivity (PSR sort gate): low polyreactivity

QVQHVESGGGLVQAGGSLRLSCAASGRIFPFNAMGCYRQAPGKETEFVAAIRLSGTRTYYADSVKGRFTISRDNAKNTVYLQMNCLNPEDTAVYYCAAKFSGHYYNYDYWGQGTQVTVSS
polyreactivity (PSR sort gate): high polyreactivity

QVQHVESGGGLVQAGGSLRLSCAASGRIFSSNAMGWYRQAPGKERELVASITSGGNTNYADSVKGRFTISRDNAKNTVYLQMNSLKPEDTAVYYCAALSKTRCGYWGQGTQVTVSS
polyreactivity (PSR sort gate): high polyreactivity

QVQHVESGGGLVQAGGSLRLSCAASGRIFSTNPMGWSRQAPGKERELVAAITTSGGITYYADSVKGRFTISRDNAKNTVYLQMNSLKPEDTGVYYCNTGYYGRLRDDYWGQGTQVTVSS
polyreactivity (PSR sort gate): high polyreactivity

QVQHVESGGGLVQAGGSLRLSCAASGRIFTYYTMGWYRPAPGKEREFVAAISWSGTSTYYADSVKGRFRISRDNAKNTVYLQMKSLKPEDTAVYSCAARNWYSRYDYWGQGTQVTVSS
polyreactivity (PSR sort gate): high polyreactivity

QVQHVESGGGLVQAGGSLRLSCAASGRIFYAYAMGWYRQAPGKQREMVAAITARGGSTYYADSVKGRFTISRDNAKNTVYLQINSLKPEDTAVYYCAKDTLLETGYEYWGQGTQVTVSS
polyreactivity (PSR sort gate): high polyreactivity

QVQHVESGGGLVQAGGSLRLSCAASGRNFTYYAMGWYRQAPGKERELVAAISGGGITNYADSVKGRFTISRDNAKNTVYLQMNSLKPEDTAVYYCAADQRYRRAFRSRYGSWGQGTQVTVSS
polyreactivity (PSR sort gate): low polyreactivity

QVQHVESGGGLVQAGGSLRLSCAASGRTFQYNTMGWYRQAPGKERELVAAISWGGGSTYYADSVKGRFTISRDNAKNTVYLQMNSLKPEDTAVYYCAATHYRGKGYYYWGQGTQLTVSS
polyreactivity (PSR sort gate): low polyreactivity

QVQHVESGGGLVQAGGSLRLSCAASGRTFRANTMGWYRQAPGKERELVASIRGNGGTTYYADSVKGRFTISRDNAKNTVYLQMNSLKPEDTAVYYCAAGLYYIRWSRRYEYWGQGTQVTVSS
polyreactivity (PSR sort gate): high polyreactivity

QVQHVESGGGLVQAGGSLRLSCAASGRTFVRYAMGWSRPAPGKERELVAAISRSGVGTYYADSVKGRFTISRDNAKKTVYLQMNSLKPEDTAVYYCNALPGTQYNYWGQGTQVTVSS
polyreactivity (PSR sort gate): high polyreactivity

QVQHVESGGGLVQAGGSLRLSCAASGRTFYLNAMGWSRQAPGKARELVATISYTGDTTYYADSVKGRFTISRDNAKNTVYLQMNSLKPEDTAVYYCAKDYSLTQQRHAAYIVGSVDYWGQGTQVTVSS
polyreactivity (PSR sort gate): high polyreactivity

QVQHVESGGGLVQAGGSLRLSCAASGRTFYNYAKGWYRQAPGKERELVAGITSCGGSTYYADSVKGRFTISRDNAKNTVYLQMNSLKPEDTAVYYCARVWPSQKHYYWGQGTQVTVSS
polyreactivity (PSR sort gate): high polyreactivity

QVQHVESGGGLVQAGGSLRLSCAASGRTFYRYAMGWYRQAPGKERELVAAISGSGTSTSYADSVKGRFTISRDNAKNSVYLQMNSLKPEDTAVYYCAATYYVYYYSRYYFWGQGTQVTVSS
polyreactivity (PSR sort gate): high polyreactivity

QVQHVESGGGLVQAGGSLRLSCAASGRTFYSYAMGWYRQAPGKDRELVAAITSDGGTYYADSVKGRFTISRDNAKNTVYLQMNSLKPDDTAVYYCNTRDLYGYPQVTGYDYWGQGTQVTVSS
polyreactivity (PSR sort gate): low polyreactivity

QVQHVESGGGLVQAGGSLRLSCAASGRTLIYNAMGWYRQAPGKERELVAAITGGGGRTYYADSVKGRFTISRDNAKNTVYLQMNSLKPEDTAVYYCAVAGTVLSHMGYWGQGTQVTVSS
polyreactivity (PSR sort gate): low polyreactivity

QVQHVESGGGLVQAGGSLRLSCAASGRTSIPYAMGRYRQAPGKEWQLVAAISYSVGRTYYADSVKGRFTISRDNAKNTVYLQMNSLKPEDTAVYYCAAEYNGVVRDYDYWGQGTQVTVSS
polyreactivity (PSR sort gate): low polyreactivity

QVQHVESGGGLVQAGGSLRLSCAASGRTVYGYTMGWDRQAPGKERELVAAISYSGDSTYYADSVKGRFTISRDTAKNTVYFPMNSLKPEYTAVYYCAVRRYARFNYHYWGQGPQVTVSS
polyreactivity (PSR sort gate): high polyreactivity

QVQHVESGGGLVQAGGSLRLSCAASGSIFEDYVMGWYRQAPGKERELVADITSGGTTYYADSVKGRFTISRDNAKNTVYLQMNSLKPEDTAVYYCAAEVDWVPFLLDYWGQGTQVTVSS
polyreactivity (PSR sort gate): low polyreactivity

QVQHVESGGGLVQAGGSLRLSCAASGSIFGDNAMGWYRQAPGKERELVAAISSGGPTYADSVKGRFTISRDNAKNTVYLQMNSLKPEDTAVYYCNATDGITPYDLTDIEFDYWGQGTQVTVSS
polyreactivity (PSR sort gate): low polyreactivity

QVQHVESGGGLVQAGGSLRLSCAASGSIFPDNAMGWYRQAPGQERELVAAIDKGTGSTNYADSVTGRFTLSRDNAKNNVYFQMNSLKPEDTAVYYCAKGWLTPRGGAWYDDYWGQGTHVTVSS
polyreactivity (PSR sort gate): low polyreactivity

QVQHVESGGGLVQAGGSLRLSCAASGSIFRRYDLGWSRQAPGKERELVAAISSSGGSTYYADSVKGRFTISRDNAKNTVYLQMNSLKPEDTAVYYCAADIYDDDRSESTEYDYWGQGTQVTVSS
polyreactivity (PSR sort gate): low polyreactivity

QVQHVESGGGLVQAGGSLRLSCAASGSIFRWYAMGWYRQAPGKERELVAGITSGGSTNYADSVKGRFTISRDNAKNTVYLQMNSLKPEDTAVYYCNARRWVGSRYDYWGQGTQVTVSS
polyreactivity (PSR sort gate): high polyreactivity

QVQHVESGGGLVQAGGSLRLSCAASGSIFSAYTMGWYRPAPGKERELVAAISSSGGRTYYADSVKGRFTISRDNAKNTVYLQMNSLKPEDTAVYYCAAGYWWALSSRGYGYWGQGTQVTVSS
polyreactivity (PSR sort gate): high polyreactivity

QVQHVESGGGLVQAGGSLRLSCAASGSIFTGNAMGWYRQAPGKEREFVAAITNGGITNYADSVKGRFTISRDNAKNTVYLQMNSLKPEDTAVYYCAADYVDFYSFRRFDYWGQGTQVTVSS
polyreactivity (PSR sort gate): low polyreactivity

QVQHVESGGGLVQAGGSLRLSCAASGSIFTVYAMGWYRQAPGKERELVAGITSGGNTNYADSVKGRFTISRDNAKNTVYLQMNSLKPEDTAVYYCAARIYGYVTYGYWGQGTQVTVSS
polyreactivity (PSR sort gate): low polyreactivity

QVQHVESGGGLVQAGGSLRLSCAASGSIFVPYAMGWYRQAPGKERELVAAISSRGGRTYYADSVKGRFTISRDNAKNTVYLQMISLKPEDTAVYYCNKTAGSHIPRLEYWGQGTQVTVSS
polyreactivity (PSR sort gate): low polyreactivity

QVQHVESGGGLVQAGGSLRLSCAASGSIFWDNAMGWYRQAPGKERELVAAITSSGDTTYYADSVKGRFTISRDNAKNTVYLQMNSLKPEDTAVYYCAKVFGPTDYLTGTFKGDYWGQGTQVTVSS
polyreactivity (PSR sort gate): low polyreactivity

QVQHVESGGGLVQAGGSLRLSCAASGSIFWYYAMGWYRKAPVKERELVAAITSSGGRTYYADSVKGRFTISRDNAKNTVYLQMNSLKQEDTAVYYCAARQWWRYDYWGQGTQVTVSS
polyreactivity (PSR sort gate): high polyreactivity

QVQHVESGGGLVQAGGSLRLSCAASGSNFGYVMGWYRQAPGKERELVAAISRSGGSTYYADSVKGRFTISRDNAKNTVYLQMNSLKPEDTAVYYCAARLYSSSYNSEQYYYWGQGTQVTVSS
polyreactivity (PSR sort gate): high polyreactivity

QVQHVESGGGLVQAGGSLRLSCAASGSTFARYGLGWYRQAPGKERELVASLTYTGGRTYADSVKGRFTFSRDNAKNTVYLQMNSLKPEDTAVYYCAARYRLWGQGTQVTVSS
polyreactivity (PSR sort gate): low polyreactivity

QVQHVESGGGLVQAGGSLRLSCAASGSTFDDNVMGWYRQAPGKERELVAAISSSGGSTYYADSVKGRFTISRDNAKNTVYLQMNSLKPEDTAVYYCNAVYFGLWGYYARRSYNYWGQGTQVTASS
polyreactivity (PSR sort gate): low polyreactivity

QVQHVESGGGLVQAGGSLRLSCAASGSTFDYNAMGWYRQAPGKERELVAAISFIGGATDYADCVKGRFTISRDNAKNTVYLLMNSLKPEDSGVYYCAADTTSVKDGTFYSWGQGTQVTVSS
polyreactivity (PSR sort gate): low polyreactivity

QVQHVESGGGLVQAGGSLRLSCAASGSTFGYNPMGSYRQAPGKERELTNYADSVKGRFTISRDNAKNTVYLQMNSLKPEDTAVYYCNAQIDFGDPEKRAWGYDYWGQGTQVTVSS
polyreactivity (PSR sort gate): low polyreactivity

QVQHVESGGGLVQAGGSLRLSCAASGSTFPYYAMGWYRQAPGNERELVAAISNGVSTYYADSVKGRFTISRDNAKNTVYFHMNCLKQVDTAVYYCAGDFWITTRDIVKWWLYDYWGQGTQVTVSS
polyreactivity (PSR sort gate): low polyreactivity

QVQHVESGGGLVQAGGSLRLSCAASGSTFVVYAMGWYRQAPGKERELVAAINWSGGSTYYADSVKGRFTISRDNAKNTVYLQMNSLKPEDTAVYYCSAYGVTYRGDYDYWGQGTQVTVSS
polyreactivity (PSR sort gate): low polyreactivity
